Assay results: US20240034796A1 (GENUV, published 2024)
Changes are numbered by the printed parent chain. Each block holds one molecule with its values, some of them ahead of it.

Legend:
human PD-1 protein [1] = target: T1, human PD-1 protein (human, UniProt Q15116 25-167, limits assumed); test: SPR, Biacore 8K, antibody captured on Protein A chip, human PD-1 as analyte, pH 7.4
T1 construct: also called human PD-1 antigen

human PD-1 protein [2] = target: T1, human PD-1 protein; test: SPR, Biacore 8K, antibody captured by anti-human IgG on CM5, human PD-1 as analyte
Method: Anti-human IgG antibody was immobilized on a CM5 chip (Cytiva) via amine coupling. […] Human PD-1 and running buffer at a concentration of 0-100 nM (0, 6.25, 12.5, 25, 50, 100 nM) were flowed onto the sensor chip at a flow rate of 30 μl/min for an association phase of 120 s, which was followed by a dissociation phase of 900 s. The chip was regenerated with glycine at pH 1.5 after each experiment. Association and dissociation curves were drawn using Cytiva evaluation software, and kinetics and affinity values were determined.

[3] = target: T2, human PD-1 expressed on CHO-S cells (human, UniProt Q15116 25-288); test: cell-based ELISA on fixed CHO-S cells expressing human PD-1
T2 construct: CHO-S cells transfected with pCMV3-C-FLAG vector (Sino) holding human PD-1 cDNA; also called cell surface human PD-1; hPD-1
T2 sequence (Q15116 25-288 limits assumed): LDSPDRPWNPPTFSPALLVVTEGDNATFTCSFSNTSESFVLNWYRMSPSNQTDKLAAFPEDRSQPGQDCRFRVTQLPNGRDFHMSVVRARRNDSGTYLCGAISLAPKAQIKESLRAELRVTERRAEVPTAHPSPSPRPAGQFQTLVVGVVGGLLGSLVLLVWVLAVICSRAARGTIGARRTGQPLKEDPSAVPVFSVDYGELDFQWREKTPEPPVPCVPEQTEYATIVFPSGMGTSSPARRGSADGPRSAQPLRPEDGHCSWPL

[4] = target: T2, human PD-1 expressed on CHO-S cells; test: cell-based ELISA on CHO-S cells expressing human PD-1
Method: (§1) To summarize the ELISA analysis, 10,000 CHO-S cells expressing either human PD-1 or mouse PD-1 were coated in a collagen-coated 96-well plate (Thermo scientific) overnight in an incubator at 37° C. The coated cells were fixed with 8% paraformaldehyde at room temperature for 15 minutes.
(§2) After washing, a secondary antibody was added and incubated overnight at 4° C. […] After washing, TMB substrate (abcam) was added, and the color reaction was stopped with STOP solution (abcam). Absorbance at 450/650 nm was measured using a microplate reader (ThermoFisher).

human PD-1 protein [5] = target: T1, human PD-1 protein; test: SPR, Biacore 8K, antibody captured on Protein A chip, human PD-1 as analyte
human PD-1 protein [6] = target: T1, human PD-1 protein; test: SPR (Biacore 8K), ratio between the values at pH 7.4 and pH 6.0, human PD-1 as analyte
Method: (§3) The binding kinetics of each antibody to human PD-1 were measured through SPR (Surface Plasma Resonance) analysis using Biacore 8K (Cytiva), and the antibodies' binding affinities to the antigen were compared to one another.
(§4) Seven concentrations ([…]) of human PD-1 were flowed onto the sensor chip at a flow rate of 30 μL/min for an association phase of 120 s, followed by dissociation for 1800 s. Capture, association, and dissociation were performed in HBS-EP+buffer at pH 6.0. The chip was regenerated with glycine at pH 1.5 after each experiment. Association and dissociation curves were drawn using Cytiva evaluation software, and kinetics and affinity values were determined.

human PD-1 protein [7] = target: T1, human PD-1 protein; test: SPR, Biacore 8K, antibody captured on Protein A chip, human PD-1 as analyte, HBS-EP+ at pH 6.0
Method: as §3, §4

[8] = target: T2, human PD-1 expressed on CHO-S cells; test: cell-based ELISA on CHO-S cells expressing human PD-1; EC50 against Keytruda and Opdivo
Method: as §1, §2

[9] = target: T2, human PD-1 expressed on CHO-S cells; test: cell-based ELISA on fixed CHO-S cells expressing human PD-1, hybridoma supernatant
Method: (§5) To summarize the ELISA assay, 10,000 CHO-S cells expressing human or mouse PD-1 were coated in collagen-coated 96-well plates (ThermoFisher) overnight at 37° C. The coated cells were fixed with 8% paraformaldehyde at room temperature for 15 minutes. […] After washing, secondary antibody was added and incubated overnight at 4° C. […] After washing, TMB substrate (abcam) was added, and the color reaction was stopped with STOP solution (abcam). Absorbance at 450/650 nm was measured using a microplate reader (ThermoFisher).

human CD28 protein = human CD28 protein (human, UniProt P10747 19-152); test: protein-based ELISA, coated human CD28, hybridoma supernatant
Method: (§6) Human PD-1, CD28, CTLA-4, ICOS, and BTLA proteins were coated in 96-well plates (Nunc) overnight at 4° C. […] After washing, a secondary antibody was added and incubated at 37° C. for 2 hours. […] After washing, TMB substrate (abcam) was added, and the color reaction was stopped with STOP solution (abcam). Absorbance at 450/650 nm was measured using a microplate reader (ThermoFisher).

[10] = target: T3, mouse PD-1 expressed on CHO-S cells (mouse, UniProt Q02242 25-288); test: cell-based ELISA on CHO-S cells expressing mouse PD-1
T3 construct: whole, on cells; also called cell surface mouse PD-1; mPD-1
T3 sequence (looked up): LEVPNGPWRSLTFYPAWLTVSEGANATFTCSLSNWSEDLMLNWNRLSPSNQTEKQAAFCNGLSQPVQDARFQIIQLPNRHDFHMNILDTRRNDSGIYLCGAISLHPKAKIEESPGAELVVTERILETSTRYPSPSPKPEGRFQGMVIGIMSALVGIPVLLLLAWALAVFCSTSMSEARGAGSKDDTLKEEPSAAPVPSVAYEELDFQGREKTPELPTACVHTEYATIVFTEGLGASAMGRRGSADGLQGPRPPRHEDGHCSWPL
Method: as §1, §2

human BTLA protein = human BTLA protein (human, UniProt Q7Z6A9 31-157, limits assumed); test: protein-based ELISA, coated human BTLA, hybridoma supernatant
Method: as §6

human CTLA-4 protein = human CTLA-4 protein (human, UniProt P16410 36-161); test: protein-based ELISA, coated human CTLA-4, hybridoma supernatant
Chain of human CTLA-4 protein (P16410 36-161 limits assumed): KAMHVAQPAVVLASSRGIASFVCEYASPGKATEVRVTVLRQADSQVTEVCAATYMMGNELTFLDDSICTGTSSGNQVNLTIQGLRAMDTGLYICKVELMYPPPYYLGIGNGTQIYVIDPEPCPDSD
Method: as §6

[11] = target: T3, mouse PD-1 expressed on CHO-S cells; test: cell-based ELISA on fixed CHO-S cells expressing mouse PD-1, hybridoma supernatant
Method: as §5

human ICOS protein = target: T4, human ICOS protein (human, UniProt Q9Y6W8 21-140); test: protein-based ELISA, coated human ICOS, hybridoma supernatant
T4 sequence (looked up): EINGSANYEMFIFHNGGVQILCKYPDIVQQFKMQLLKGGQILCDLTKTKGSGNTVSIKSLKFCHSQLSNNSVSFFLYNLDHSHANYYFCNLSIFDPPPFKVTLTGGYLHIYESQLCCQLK
Method: as §6

human PD-1 protein [12] = target: T1, human PD-1 protein; test: SPR, binding kinetics to human PD-1; parent run 2
[13] = target: T5, extracellular domain (ECD) PD-1 protein from mouse (mouse, UniProt Q02242 25-169); test: protein-based ELISA, coated PD-1 ECD, antibody at 1 ug/ml
T5 construct: extracellular domain; also called mouse PD-1 antigen
T5 sequence (looked up): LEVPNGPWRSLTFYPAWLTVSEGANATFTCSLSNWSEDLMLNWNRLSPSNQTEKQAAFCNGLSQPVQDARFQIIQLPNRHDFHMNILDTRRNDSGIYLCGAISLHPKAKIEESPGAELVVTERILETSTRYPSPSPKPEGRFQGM
Method: To determine the cross-reactivity of the antibody to PD-1 antigens, protein-based ELISA was performed. To summarize the ELISA analysis, a 96-well plate (Thermo scientific) was coated with 10 ng of the extracellular domain (ECD) PD-1 proteins from human, mouse, rabbit, cynomolgus, and rat overnight at 4° C. […] After washing, a secondary antibody (anti-human IgG antibody) was added and incubated at 37° C. for 2 hours. After washing, TMB substrate (abcam) was added, and the color reaction was stopped with STOP solution (abcam). Absorbance at 450/650 nm was measured using a microplate reader (ThermoFisher).

human PD-1 protein [14] = target: T1, human PD-1 protein; test: SPR, binding kinetics to human PD-1; parent run 1
[15] = target: T6, human PD-1 with I126 mutated to alanine (human, UniProt Q15116 25-288, limits assumed); test: alanine scanning, high-throughput flow cytometry
T6 construct: Alanine scanning mutant, expressed and analysed by high-throughput flow cytometry; the construct is not described further
T6 sequence (Q15116 other isoform, or with tags, fused parts or gaps limits assumed, change not shown): as the sequence (Q15116 25-288 limits assumed) above, with I102A counted along it
Description: (§7) Selected amino acid residues of PD-1 were mutated to alanine using PCR mutagenesis.

[16] = target: T7, human PD-1 with P130 mutated to alanine (human, UniProt Q15116 25-288, limits assumed); test: alanine scanning, high-throughput flow cytometry
T7 construct: Alanine scanning mutant, expressed and analysed by high-throughput flow cytometry; the construct is not described further
T7 sequence (Q15116 other isoform, or with tags, fused parts or gaps limits assumed, change not shown): as the sequence (Q15116 25-288 limits assumed) above, with P106A counted along it
Description: as §7

[17] = target: T8, human PD-1 with L128 mutated to alanine (human, UniProt Q15116 25-288, limits assumed); test: alanine scanning, high-throughput flow cytometry
T8 construct: Alanine scanning mutant, expressed and analysed by high-throughput flow cytometry; the construct is not described further
T8 sequence (Q15116 other isoform, or with tags, fused parts or gaps limits assumed, change not shown): as the sequence (Q15116 25-288 limits assumed) above, with L104A counted along it
Description: as §7

T1 sequence (Q15116 25-167 limits assumed): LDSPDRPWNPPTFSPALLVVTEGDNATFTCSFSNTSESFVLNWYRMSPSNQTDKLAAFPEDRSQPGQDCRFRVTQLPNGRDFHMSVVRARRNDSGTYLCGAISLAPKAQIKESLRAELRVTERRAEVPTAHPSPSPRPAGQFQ

- Kd (human PD-1 protein [1]): 6.6 nM
- Kd (human PD-1 protein [2]): 6.33 nM
- EC50 (read off the curve) [3]: 0.05 µg/mL
- EC50 [4]: 0.154 nM
- Kd (human PD-1 protein [5]): 7.06 nM
Molecule: Keytruda (antibody)

- Kd (human PD-1 protein [1]): 12.6 nM
- Ratio(PH 7.4 vs PH6) KD (human PD-1 protein [6]): 2.8
- Ratio(PH 7.4 vs PH6) ka (human PD-1 protein [6]): 3.4
- Ratio(PH 7.4 vs PH6) kd (human PD-1 protein [6]): 0.8
- Kd (human PD-1 protein [7]): 4.5 nM
B1: 2E5 antibody (antibody, V domains shown)
VH: QVQLVQSGAEVKKPGSSVKVSCKASGFTFTTYYISWVRQAPGQGLEYLGYINMGSGGTNYNEKFKGRVTITADKSTSTAYMELSSLRSEDTAVYYCAIIGYFDYWGQGTMVTVSS
VL: DVVMTQSPLSLPVTLGQPASISCRSSQSLLDSDGGTYLYWFQQRPGQSPRRLIYLVSTLGSGVPDRFSGSGSGTDFTLKISRVEAEDVGVYYCMQLTHWPYTFGQGTKLEIK

- fold improved binding activity compared to Keytruda and Opdivo [8]: ~5 fold
- EC50 (read off the curve) [9]: ~0.01 µg/mL
- binding result (human CD28 protein): no binding
- EC50 [10]: 0.0317 nM
- binding result (human BTLA protein): no binding
- binding result (human CTLA-4 protein): no binding
- EC50 [4]: 0.0281 nM
- EC50 (read off the curve) [11]: ~0.01 µg/mL
- binding result (human ICOS protein): no binding
B2: hybridoma 1G1 antibody (antibody, V domains shown)
VH: EVQLQQSGAELVKPGASVKLSCKASGYTFTGYWMHWVKQRPGQGLEWIGMIHPNSDTTTYNEKFKNRATLTVDKSSGTAYMQLSSLTSEDSAVYYCTGTDQAAWFAFWGQGTLVTVSA
VL: DIVLTQTPLSLPVSLGDQASISCRSSQNIVHSNGDTYLEWYLQKPGQSPKLLIYKVSKRFSGVPDRFSGSGSGTDFTLKISRVEAEDLGVYYCFQGSHVPWTFGGGTKLEIK
notes: Mouse antibody from the hybridoma, used as culture supernatant or Protein G purified; IgG1 reverse primer used for VH); also called 1G1 hybridoma antibody; monoclonal cell (hybridoma) 1G1 antibody

- Kd (human PD-1 protein [12]): 2.17 nM
- koff (human PD-1 protein [12]): 0.000412 s⁻¹
- kon (human PD-1 protein [12]): 190000 M⁻¹ s⁻¹
- Kd (human PD-1 protein [1]): 5.4 nM
- binding result [13]: binds
- Kd (human PD-1 protein [14]): 2.32 nM
- koff (human PD-1 protein [14]): 0.000402 s⁻¹
- kon (human PD-1 protein [14]): 174000 M⁻¹ s⁻¹
- Ratio(PH 7.4 vs PH6) KD (human PD-1 protein [6]): 5.8
- Ratio(PH 7.4 vs PH6) ka (human PD-1 protein [6]): 2.3
- Ratio(PH 7.4 vs PH6) kd (human PD-1 protein [6]): 2.7
- Kd (human PD-1 protein [7]): 0.9 nM
B3: humanized antibody 1G1-h70 (antibody, V domains shown)
VH: QVQLVQSGAEVKKPGASVKVSCKASGYTFTGYWMHWVRQAPGQGLEWIGMIHPNSDTTTYNEKFKNRVTMTRDTSISTAYMELSRLRSDDTAVYYCAGTDQAAWFAFWGQGTTVTVSS
VL: DIVMTQTPLSLSVTPGQPASISCRSSQNIVHSQGDTYLEWYLQKPGQSPQLLIYKVSKRFSGVPDRFSGSGSGTDFTLKISRVEAEDVGVYYCFQGSHVPWTFGGGTKVEIKR
notes: hIgG4 heavy chain, human kappa light chain; also called 1G1-h70 parent antibody (WT); U299-WTI

- binding activity relative to the wild-type antigen [15]: ≤ 50%
- binding activity relative to the wild-type antigen [16]: ≤ 50%
- binding activity relative to the wild-type antigen [17]: ≤ 50%
- Kd (human PD-1 protein [2]): 3.35 nM
- koff (human PD-1 protein [2]): 0.000749 s⁻¹
- kon (human PD-1 protein [2]): 223000 M⁻¹ s⁻¹
B4: chimeric 1G1 antibody (antibody, human IgG4 S228P, kappa, V domains shown)
VH: B2 VH
VL: B3 VL with M4L, S12P, T14S, P15L, Q17D, P18Q, Q33N, Q50K, V88L, V109L
notes: signal peptide not part of the entries; also called 1G1 chimeric; 1G1-chimeric
